According to publication PMC6250738:
Each block holds one substance with its values, some of them ahead of it.

Experiments:
Experiment in all cases: SEC; Superdex 200 10/30 GL, PBS, native conditions; MW from elution volume against protein standards
[1] = target: NanoLuc luciferase-TriggerTrimer-galectin-3 trimeric nanoassembly (deep sea shrimp | not stated | human)
[2] = target: superfolder green fluorescent protein-TriggerTrimer-galectin-3 trimeric nanoassembly
[3] = target: chondroitinase ABC I-TriggerTrimer-galectin-3 trimeric nanoassembly

stoichiometry N [1]: 3
Substance: NanoLuc luciferase-TriggerTrimer-galectin-3 trimeric nanoassembly

stoichiometry N [2]: 3
Substance: superfolder green fluorescent protein-TriggerTrimer-galectin-3 trimeric nanoassembly

Substance: chondroitinase ABC I-TriggerTrimer-galectin-3 trimeric nanoassembly
stoichiometry N [3]: 3
